Measurements published in patent US20170260289A1 (Novo Nordisk, published 2017).

B1: mAb 1F91 (antibody, IgG1, V domains shown)
VH: DVQLQESGPGLVKPSQSLSLTCTVSGYSITSDYAWNWIRQFPGNKLEWMGYISYSGSTSYNPSLKSRISITRDTSKNQFFLQLNSVTTEDTATYYCARWAYDGPWGQGTLVTVSA
VL: QIVLSQSPALLSASPGEKVTMTCRASSSVSHMHWYQQKPGSSPKPWIYATSNLASGVPARFSGSGSGTSYSLTITRVEAEDAATYYCQQWSSNPFTFGSGTKLEIKR
B2: Fab 0295 (Fab, V domains shown)
VH: QVQLKQSGPGLVQPSQSLSITCTVSGFSLTNYGVHWVRQSPGKGLEWLAVIWRGGSIDYNAAFMSRLSITKDNSKSQVFFKMNSLQADDTAIYYCAKNSHGNYVGYAMDYWGQGTSVTVSS
VL: GIVMTQSQKFMSTTVGDRVSITCKASQSVGPAVAWYQQKPGQSPKLLIYSASNRYTGVPDRFTGSGSGADFTLTISNLHSEDLADYFCQQYTSYPTFGGGTKLEIKR
B3: Fab 0088 (Fab, V domains shown)
VH: EVQLVESGGGLVKPGGSLRLSCAASGFTFSNYAMSWVRQTPEKRLEWVATISRSGSYSYFPDSVQGRFTISRDNAKNSLYLQMNSLRAEDTAVYYCARLGGYDEGDAMDSWGQGTTVTVSS
VL: DIVMTQTPLSLSVTPGQPASISCKSSQSLLESDGKTYLNWYLQKPGQSPQLLIYLVSILDSGVPDRFSGSGSGTDFTLKISRVEAEDVGVYYCLQATHFPQTFGGGTKVEIKR
B4: Fab 0313 (Fab, V domains shown)
VH: EVQLVESGGGLVKPGGSLRLSCAASGFTFSNYAMSWVRQAPGKGLEWVSTISRSGSYSYYADSVKGRFTISRDNAKNSLYLQMNSLRAEDTAVYYCARLGGYDEGDAMDSWGQGTTVTVSS
VL: DIVMTQTPLSLSVTPGQPASISCKSSQSLLESDGKTYLNWYLQKPGQSPQLLIYLVSILDSGVPDRFSGSGSGTDFTLKISRVEAEDVGVYYCLQATHFPQTFGGGTKVEIKR
B5: mAb 2F3 (antibody, IgG1, V domains shown)
VH: QVQLKQSGPGLVQPSQSLSITCTVSGFSLSSYGVHWVRQSPGKGLEWLGVIWRGGSTDFNAAFMSRVSFTKDNSKSQVFFKMNSLQADDTAIYYCAKNSHGNYVGYAMDYWGQGTSVTVSS
VL: DIVMTQSQKFMSTTVGDKVSIPCKASENVGAAVAWYQQKPGQSPTLLIYSASNRYTGIPDRFTGSGSGTDFTLTIRTVQSEDLADYFCQQYTNYPTFGGGTKLEIKR
B6: mAb 2F22 (antibody, IgG1, V domains shown)
VH: QVQLKQSGPGLVQPSQSLSITCTVSGFSLTNYGVHWVRQSPGKGLEWLAVIWRGGSIDYNAAFMSRLSITKDNSKSQVFFKMNSLQADDTAIYYCAKNSHGNYVGYAMDYWGQGTSVTVSS
VL: GIVMTQSQKFMSTTVGDRVSITCKASQSVGPAVAWYQQKPGQSPKLLIYSASNRYTGVPDRFTGSGSGADFTLTISNLHSEDLADYFCQQYTSYPTFGGGTKLEIKR
B7: mAb 0336 (antibody, human IgG1, kappa, V domains shown)
VH: QVQLKQSGPGLVQPSQSLSITCTVSGFSLTNYGVHWVRQSPGKGLEWLAVIWRGGSIDYNAAFMSRLSITKDNSKSQVFFKMNSLQADDTAIYYCAKNSHGNYVGYAMDYWGQGTSVTVSS
VL: GIVMTQSQKFMSTTVGDRVSITCKASQSVGPAVAWYQQKPGQSPKLLIYSASNRYTGVPDRFTGSGSGADFTLTISNLHSEDLADYFCQQYTSYPTFGGGTKLEIKR
B8: mAb 0310 (antibody, human IgG1, kappa, V domains shown)
VH: EVQLVESGGGLVKPGGSLRLSCAASGFTFSNYAMSWVRQTPEKRLEWVATISRSGSYSYFPDSVQGRFTISRDNAKNSLYLQMNSLRAEDTAVYYCARLGGYDEGDAMDSWGQGTTVTVSS
VL: DIVMTQTPLSLSVTPGQPASISCKSSQSLLESDGKTYLNWYLQKPGQSPQLLIYLVSILDSGVPDRFSGSGSGTDFTLKISRVEAEDVGVYYCLQATHFPQTFGGGTKVEIKR
B9: mAb 2021 (antibody, IgG4, V domains shown)
VH: EVQLVESGGGLVKPGGSLRLSCAASGFTFSNYAMSWVRQTPEKRLEWVATISRSGSYSYFPDSVQGRFTISRDNAKNSLYLQMNSLRAEDTAVYYCARLGGYDEGDAMDSWGQGTTVTVSS
VL: DIVMTQTPLSLSVTPGQPASISCKSSQSLLESDGKTYLNWYLQKPGQSPQLLIYLVSILDSGVPDRFSGSGSGTDFTLKISRVEAEDVGVYYCLQATHFPQTFGGGTKVEIKR

Assays:
Assay in all cases: cell-based or functional assay
[1] = biological target: T1, human TFPI alpha (full-length TFPIα) (human, UniProt P10646 29-304)
[2] = biological target: T1, human TFPI alpha (full-length TFPIα); remark: listed apart in the source
[3] = biological target: T2, endogenous TFPI of human plasma (human, UniProt P10646 29-304, limits assumed)
[4] = biological target: T1, human TFPI alpha (full-length TFPIα); remark: listed apart in the source
[5] = biological target: T2, endogenous TFPI of human plasma; remark: listed apart in the source

| Binder | Peak (nM); thrombin generation, FVIII-neutralised plasma + 20 nM TFPIα; 200 nM antibody [1] [nM] | Peak (nM); thrombin generation, FVIII-neutralised plasma + 10 nM TFPIα; 10 nM Fab [2] [nM] | Peak (nM); thrombin generation, FVIII-neutralised plasma + 10 nM TFPIα; 50 nM Fab [2] [nM] | Peak (nM); thrombin generation, FVIII-neutralised plasma + 10 nM TFPIα; 100 nM Fab [2] [nM] | ttPeak (min); thrombin generation, FVIII-neutralised plasma + 10 nM TFPIα; 10 nM Fab [2] [min] | ttPeak (min); thrombin generation, FVIII-neutralised plasma + 10 nM TFPIα; 50 nM Fab [2] [min] | ttPeak (min); thrombin generation, FVIII-neutralised plasma + 10 nM TFPIα; 100 nM Fab [2] [min] | Peak (nM); thrombin generation, FVIII-neutralised plasma, endogenous TFPI; 10 nM Fab [3] [nM] | Peak (nM); thrombin generation, FVIII-neutralised plasma, endogenous TFPI; 50 nM Fab [3] [nM] | Peak (nM); thrombin generation, FVIII-neutralised plasma, endogenous TFPI; 100 nM Fab [3] [nM] | ttPeak (min); thrombin generation, FVIII-neutralised plasma, endogenous TFPI; 10 nM Fab [3] [min] | ttPeak (min); thrombin generation, FVIII-neutralised plasma, endogenous TFPI; 50 nM Fab [3] [min] | ttPeak (min); thrombin generation, FVIII-neutralised plasma, endogenous TFPI; 100 nM Fab [3] [min] | ttPeak (min); thrombin generation, FVIII-neutralised plasma + 20 nM TFPIα; 200 nM antibody [1] [min] | further results |
| --- | --- | --- | --- | --- | --- | --- | --- | --- | --- | --- | --- | --- | --- | --- | --- |
| B1 | 0 | – | – | – | – | – | – | – | – | – | – | – | – | – | – |
| B2 | – | 10.9 | 31.8 | 33.8 | 25.2 | 11.5 | 10.8 | 94 | 101 | 103 | 8.4 | 8.2 | 8.2 | – | – |
| B3 | – | 12.7 | 42.9 | 54.2 | 29 | 21.2 | 20.2 | 85.6 | 85.2 | 90.2 | 11.5 | 11.6 | 11.6 | – | – |
| B4 | – | 0.4 | 0.8 | 1.4 | 106 | 76.2 | 48.1 | 10 | 19.8 | 29.6 | 21 | 10.2 | 8.9 | – | – |
| B5 | 20.9 | – | – | – | – | – | – | – | – | – | – | – | – | 14.6 | – |
| B6 | 23.7 | – | – | – | – | – | – | – | – | – | – | – | – | 13.6 | – |
| B7 | – | – | – | – | – | – | – | – | – | – | – | – | – | – | Peak (nM); thrombin generation, FVIII-neutralized plasma + 10 nM TFPI alpha; 100.0 nM mAb [4]: 44.9 nM; ttPeak (min); thrombin generation, FVIII-neutralized plasma + 10 nM TFPI alpha; 100.0 nM mAb [4]: 11.7 min; Peak (nM); thrombin generation, FVIII-neutralized plasma, no TFPI added; 10.0 nM mAb [5]: 140 nM; ttPeak (min); thrombin generation, FVIII-neutralized plasma, no TFPI added; 10.0 nM mAb [5]: 7.8 min |
| B8 | – | – | – | – | – | – | – | – | – | – | – | – | – | – | Peak (nM); thrombin generation, FVIII-neutralized plasma + 10 nM TFPI alpha; 100.0 nM mAb [4]: 28.3 nM; ttPeak (min); thrombin generation, FVIII-neutralized plasma + 10 nM TFPI alpha; 100.0 nM mAb [4]: 24.5 min; Peak (nM); thrombin generation, FVIII-neutralized plasma, no TFPI added; 10.0 nM mAb [5]: 118 nM; ttPeak (min); thrombin generation, FVIII-neutralized plasma, no TFPI added; 10.0 nM mAb [5]: 8.5 min |
| B9 | 17.2 | – | – | – | – | – | – | – | – | – | – | – | – | 26.2 | – |
